According to the supplement of paper PMC9170038:

Test system: MS2 coat protein
Assay: apparent KD of MS2 coat protein; designed switch direction (-1 OFF switch, 1 ON switch): 1; higher = weaker reporter binding
Method in brief: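 Normalised cluster fluorescence was curve-fitted, and each design's median over clusters is its apparent KD. Before this, SNAP-549-labelled MS2 coat protein was titrated from 0.7 or 1.5 nM, doubling to 3 µM, over RNA switches transcribed on Illumina chips by stalled E. coli RNA polymerase. Titrations had no input, 200 uM small-molecule ligand, or an oligonucleotide input, and steps lasted 0.8–1.5 h (lowest) to 10–20 min (highest).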

[1] = Eterna round: R95, input ligand: FMN 200 uM
[2] = Eterna round: R95, input ligand: microRNA oligo, concentration not stated
[3] = Eterna round: R95, input ligand: none
[4] = input ligand: microRNA oligo, concentration not stated

Sequence: AACAAUUAACAUGAGGAUCACCCAUGUAUUACUUCGUGUUUUUGCUCGUCUUAUGUUAGGUUCGAUAGAGCUUAACA [Improved] (puzzle: Sensor for hsa-mir-208a version 2)
- apparent KD of MS2 coat protein [1]: 42.4 nM
- apparent KD of MS2 coat protein [2]: 12.6 nM
- apparent KD of MS2 coat protein [3]: 44.9 nM

Sequence: AACAGACAUGAGGAUCACCCAUGUAGAAUUAUGGGAGGAUAUACAAAGACGAGAGUCAGAGUAGAAGGCCUAGGAC [salish99-ss1-163] (Eterna round: R96, puzzle: Same State 1)
- apparent KD of MS2 coat protein (input ligand: FMN 200 uM): 24.3 nM
- apparent KD of MS2 coat protein [4]: 42.2 nM
- apparent KD of MS2 coat protein (input ligand: none): 51.7 nM

Sequence: AACAGUCGGCGAGGAUAUGGACAUACGGACUAACCCGUAUGGCUCACAUGAGGAUCACCCAUGUUCUAGAAGGCGCCACUGAAA [Raridi] (Eterna round: R96, puzzle: Same State NG 2)
- apparent KD of MS2 coat protein (input ligand: FMN 200 uM): 14.6 nM
- apparent KD of MS2 coat protein [4]: 43.4 nM
- apparent KD of MS2 coat protein (input ligand: none): 74 nM

Sequence: AACAGUCGGCGAGGAUAUGGACGUACGGACUAACCCGUGCAGCUCACAUGAGGAUCACCCAUGUUCUAGAAGGCGCCACUGAAA [Onesusatza] (Eterna round: R96, puzzle: Same State NG 2)
- apparent KD of MS2 coat protein (input ligand: FMN 200 uM): 15.9 nM
- apparent KD of MS2 coat protein [4]: 87.6 nM
- apparent KD of MS2 coat protein (input ligand: none): 147 nM

Sequence: AACAUGAGGAUCACCCAUGUCAGGCCGCCGGCCUACAUGAGGAAGGAUAUAGCCUCGAAAAUAGGCUAGAAGGUCCUCAUGAAU [Orises] (Eterna round: R96, puzzle: Same State NG 3)
- apparent KD of MS2 coat protein (input ligand: FMN 200 uM): 78.6 nM
- apparent KD of MS2 coat protein [4]: 6.35 nM
- apparent KD of MS2 coat protein (input ligand: none): 23.2 nM

Sequence: AACAUUCUAUCUCAGGAUAUCAUGUCAAAGACAUGAGGAUCACCCAUGUACCAGGAAACUGGUUAUGAGAAGGGAGAUAGAAUGG [Mat - Same State 2 - Mod - D48] (puzzle: Same State 2)
- apparent KD of MS2 coat protein [1]: 182 nM
- apparent KD of MS2 coat protein [2]: 195 nM
- apparent KD of MS2 coat protein [3]: 624 nM

Sequence: AACCAGGCCAGAGGAUAUGGGAAAGGAAGUGUACUAGAAGGCUGCAGCCUGAACAAACAUGAGGAUCACCCAUGUAAAACGGUG [PowerStrip SSNG 1.27] (Eterna round: R96, puzzle: Same State NG 1)
- apparent KD of MS2 coat protein (input ligand: FMN 200 uM): 296 nM
- apparent KD of MS2 coat protein [4]: 150 nM
- apparent KD of MS2 coat protein (input ligand: none): 304 nM

Sequence: AACCUACAUGAGGAUCACCCAUGUAUCUGAGGCACAGGAUAUCGACAGGCAAGACACCUGCGAGAAGGGUGACCUC [Same State 1 - Mod of Vinnie Diatater v.2] (puzzle: Same State 1)
- apparent KD of MS2 coat protein [2]: 53.6 nM

Sequence: AACGUUGGCGAGCAGGAUAUCCGCUCAUUAACAUGAGGAUCACCCAUGUUCUGCAAGAUGUGCUAGGAGAAGGGCUGGUCGACAU [Edatar] (puzzle: Same State 2)
- apparent KD of MS2 coat protein [1]: 14.9 nM
- apparent KD of MS2 coat protein [2]: 18.2 nM
- apparent KD of MS2 coat protein [3]: 34.8 nM

Sequence: AACUAACAUGAGGAUCACCCAUGUUGCAGCGGUUGAGGAUAUGUGGGUGAAAAUAGCAUGGCAGAAGGCGAGUGUA [SameState1 Malc#25] (Eterna round: R96, puzzle: Same State 1)
- apparent KD of MS2 coat protein (input ligand: FMN 200 uM): 407 nM
- apparent KD of MS2 coat protein [4]: 95.9 nM
- apparent KD of MS2 coat protein (input ligand: none): 208 nM

Sequence: AAGAAAGACGCAGGAUAUCAGCGCAAAACACGCUGAGAAGGGUGAGACAUGAGGAUCACCCAUGUAACACGGCAAAACGCCGUG [Atinanor] (Eterna round: R96, puzzle: Same State NG 1)
- apparent KD of MS2 coat protein (input ligand: FMN 200 uM): 2190 nM
- apparent KD of MS2 coat protein [4]: 122 nM
- apparent KD of MS2 coat protein (input ligand: none): 1310 nM

Sequence: AAGAAAGACGCAGGAUAUCAGCGCAAACCGCACUGAGAAGGGUGAGACAUGAGGAUCACCCAUGUAACACGGCAAAACGCCGUG [Lausgeledi] (Eterna round: R96, puzzle: Same State NG 1)
- apparent KD of MS2 coat protein (input ligand: FMN 200 uM): 1530 nM
- apparent KD of MS2 coat protein [4]: 268 nM
- apparent KD of MS2 coat protein (input ligand: none): 219 nM

Sequence: AAGAAAUCCGCAGGAUAUCCUAAGCCGGACUUAGGAGAAGGGUGGCCACAUGAGGAUCACCCAUGUAAAAGCUGAAUCACAGCC [Vetianeste] (Eterna round: R96, puzzle: Same State NG 1)
- apparent KD of MS2 coat protein (input ligand: FMN 200 uM): 554 nM
- apparent KD of MS2 coat protein [4]: 385 nM
- apparent KD of MS2 coat protein (input ligand: none): 497 nM

Sequence: AAGAAGACGAACAAGGAUAUGUCAAAGGAAACAUGAGGAUCACCCAUGUAGAGAUUGGAAAAGAAACAGAAGGUGUACAGAAAGA [JR_SS2_Sub005] (puzzle: Same State 2)
- apparent KD of MS2 coat protein [1]: 24.8 nM
- apparent KD of MS2 coat protein [2]: 33.3 nM
- apparent KD of MS2 coat protein [3]: 35.1 nM

Sequence: AAGAGACAUGAGGAUCACCCAUGUUUGAAUAAUAUAGGAUAUAUACCACAUGUAAAAGAAAUAGAAGGAUAAGAAA [Default title] (puzzle: Same State 1)
- apparent KD of MS2 coat protein [1]: 77 nM
- apparent KD of MS2 coat protein [2]: 114 nM
- apparent KD of MS2 coat protein [3]: 534 nM

Sequence: AAGAUACAUGAGGAUCACCCAUGUCGAGAGAGACGAGGAUAUCUGAAUCGAUUAGAUUACGGAGAAGGCGUGAAAA [LROPPY Same State 1 - v07_deltaG=1.9] (Eterna round: R96, puzzle: Same State 1)
- apparent KD of MS2 coat protein (input ligand: FMN 200 uM): 19.6 nM
- apparent KD of MS2 coat protein [4]: 22.2 nM
- apparent KD of MS2 coat protein (input ligand: none): 29.7 nM

Sequence: AAGCUCGUGUGAGGAUAUGCCGCCGUUUCGGCUGCAGAAGGUGCUACGUUACAUGAGGAUCACCCAUGUCUCUGUUGUUUCGUC [salish99_SSNG1_r04_954] (Eterna round: R96, puzzle: Same State NG 1)
- apparent KD of MS2 coat protein [4]: 22.1 nM

Sequence: AAGGGCGGAAACAACAUGAGGAUCACCCAUGUUGCCGAAAGGCAGGAUAUCCGGCGAAAGCAGAAGGAGAAGGGUCAAGAACCA [AK SSNG3-V2-42.1] (Eterna round: R96, puzzle: Same State NG 3)
- apparent KD of MS2 coat protein (input ligand: FMN 200 uM): 39 nM
- apparent KD of MS2 coat protein [4]: 16 nM
- apparent KD of MS2 coat protein (input ligand: none): 22.5 nM

Sequence: AAGUUACUAUCUCAGGAUAUCAUGUCAAAGACAUGAGGAUCACCCAUGUACCAGGAAACUGGUUAUGAGAAGGGAGAUAGUAACG [Mat - Same State 2 - Mod - D53] (puzzle: Same State 2)
- apparent KD of MS2 coat protein [1]: 497 nM
- apparent KD of MS2 coat protein [2]: 149 nM
- apparent KD of MS2 coat protein [3]: 443 nM

Sequence: AAUAAACAUGAGGAUCACCCAUGUAAUAUAAAUGGAGGAUAUGCAAUUAUUAAUUAUUAAGUAGAAGGUCGAAUAA [Lollin - Epsilon 1] (Eterna round: R96, puzzle: Same State 1)
- apparent KD of MS2 coat protein [4]: 67.5 nM

Sequence: AAUAAACAUGAGGAUCACCCAUGUAAUAUAAAUGGAGGAUAUGCAAUUAUUAAUUAUUAAGUAGAAGGUCGAAUAA [Lollin - Epsilon 1] (puzzle: Same State 1)
- apparent KD of MS2 coat protein [1]: 62.1 nM
- apparent KD of MS2 coat protein [2]: 55.7 nM
- apparent KD of MS2 coat protein [3]: 91.2 nM

Sequence: AAUAAAGUCAGUAAGGAUAUCCAAAUGGCGACAUGAGGAUCACCCAUGUAAGAAACCCGACAUCGGGAGAAGGUACAUGACGAUG [Enlaorle] (puzzle: Same State 2)
- apparent KD of MS2 coat protein [1]: 87.9 nM
- apparent KD of MS2 coat protein [2]: 124 nM
- apparent KD of MS2 coat protein [3]: 127 nM

Sequence: AAUAAGUUCAGCUCGUCUUGCGCCGACUGACAUGAGGAUCACCCAUGUGGAUUCCAAGGAAUCCAUUGGCGUGUUUC [Ororer] (puzzle: Sensor for hsa-mir-208a)
- apparent KD of MS2 coat protein [1]: 34.8 nM
- apparent KD of MS2 coat protein [2]: 54.3 nM
- apparent KD of MS2 coat protein [3]: 24.8 nM

Sequence: AAUUAACAUGAGGAUCACCCAUGUCGUAUUAUGGGAGGAUAUACGUGGACCGUAGUCCGCGUAGAAGGCCUAAUUA [Mat - Same State 1 - Mod of JL - D21] (Eterna round: R96, puzzle: Same State 1)
- apparent KD of MS2 coat protein (input ligand: FMN 200 uM): 21 nM
- apparent KD of MS2 coat protein [4]: 34.5 nM
- apparent KD of MS2 coat protein (input ligand: none): 38.2 nM

Sequence: AAUUAACAUGAGGAUCACCCAUGUCGUAUUAUGGGAGGAUAUACGUGGACCGUAGUCCGCGUAGAAGGCCUAAUUA [Mat - Same State 1 - Mod of JL - D21] (puzzle: Same State 1)
- apparent KD of MS2 coat protein [2]: 34.6 nM

Sequence: AAUUAAGAUCAAGGAUAUCACGUCGUUUAGACGUGAGAAGGUGAUCAUAACAUGAGGAUCACCCAUGUAUUACAUGAAUUAAUU [SSNG1/2-B3] (Eterna round: R96, puzzle: Same State NG 1)
- apparent KD of MS2 coat protein (input ligand: FMN 200 uM): 72.4 nM
- apparent KD of MS2 coat protein [4]: 404 nM
- apparent KD of MS2 coat protein (input ligand: none): 370 nM

Sequence: AAUUAAGAUCAAGGAUAUCACGUCGUUUAGACGUGAGAAGGUGAUCCAUACAUGAGGAUCACCCAUGUAUAACAUGAAUUAAUU [SSNG1/8-B3] (Eterna round: R96, puzzle: Same State NG 1)
- apparent KD of MS2 coat protein (input ligand: FMN 200 uM): 180 nM
- apparent KD of MS2 coat protein [4]: 1160 nM
- apparent KD of MS2 coat protein (input ligand: none): 698 nM

Sequence: AAUUAAGAUCGAGGAUAUCACGUCGAAUAGACGUGAGAAGGCGAUCAUAACAUGAGGAUCACCCAUGUAUUACAUGAAUUAAUU [SSNG1/4-B1] (Eterna round: R96, puzzle: Same State NG 1)
- apparent KD of MS2 coat protein (input ligand: FMN 200 uM): 23.6 nM
- apparent KD of MS2 coat protein [4]: 22.9 nM
- apparent KD of MS2 coat protein (input ligand: none): 27 nM

Sequence: AAUUAAGAUCUAGGAUAUCACGUCGAUUAGACGUGAGAAGGAGAUCAUAACAUGAGGAUCACCCAUGUAUUACAUGAAUUAAUU [SSNG1/6-B2] (Eterna round: R96, puzzle: Same State NG 1)
- apparent KD of MS2 coat protein [4]: 23.4 nM

Sequence: AAUUAAUUAAUACAUGAGGAUCACCCAUGUAAUUAUUAGAUCAAGGAUAUCAGCUCGAUUAGAGCUGAGAAGGUGAUCACAUGU [SSNG3/18-A2] (Eterna round: R96, puzzle: Same State NG 3)
- apparent KD of MS2 coat protein [4]: 282 nM

Sequence: AAUUAAUUAAUACAUGAGGAUCACCCAUGUAAUUAUUAGAUCUAGGAUAUCAGCUCGUUUAGAGCUGAGAAGGAGAUCACAUGU [SSNG3/18-B3] (Eterna round: R96, puzzle: Same State NG 3)
- apparent KD of MS2 coat protein [4]: 15.1 nM

Sequence: AAUUAUUAACAUGAGGAUCACCCAUGUAAAACAUGGAUUAACAAGCCUUUUCGUUUUUGCUCGUCUUAUAUUAUUAA [Bojan's Design] (puzzle: Sensor for hsa-mir-208a version 2)
- apparent KD of MS2 coat protein [1]: 167 nM
- apparent KD of MS2 coat protein [3]: 199 nM

Sequence: AAUUAUUAACAUGAGGAUCACCCAUGUAUAAGGGAGAAUAUUAUUAUUAUUAUUAACAAGCUUUUUGCUUGUCUCAU [Ribo-boogie] (puzzle: Sensor for hsa-mir-208a version 2)
- apparent KD of MS2 coat protein [1]: 48.6 nM
- apparent KD of MS2 coat protein [2]: 67.9 nM
- apparent KD of MS2 coat protein [3]: 68.4 nM
